From patent publication US20180162944A1 (WUXI BIOLOGICS SHANGHAI, published 2018) come the findings set out here.

Assay [1] concerns the target T1, human PD-L1 expressed on cells (CHO / CHO-K1 cells transfected with full-length human PD-L1); native PD-L1 on … (human, UniProt Q9NZQ7 19-290).
T1 construct: whole, on cells; also called PD-L1 expressing CHO cell; PD-L1 transfected CHO cells
The assay is described as follows: FACS competition on human PD-L1 expressing CHO cells; blocked ligand: mouse Fc-tagged human PD-1; bottom panel.

In assay [2] the target is T1, human PD-L1 expressed on cells (CHO / …). The assay is described as follows: FACS, CHO cells transfected with full-length human PD-L1, MFI against antibody concentration. A general note: Flow cytometry measures light scatter and fluorescence of single cells or particles in a stream.
For assay [3] the target is unchanged. Kind of assay: FACS, native PD-L1 on human monocyte-derived dendritic cells, MFI against antibody concentration.
The next assay addresses T2, recombinant human PD-L1 (human, UniProt Q9NZQ7 19-238).
T2 construct: the whole natural entry is named
The assay is described as follows: SPR (ProteOn XPR36), antibody captured on Protein A, human PD-L1 as analyte, 1:1 Langmuir fit. On the procedure: 3.2. […] Protein A protein (Sigma) was immobilized to a GLM sensor chip (Bio-Rad) through amine coupling. Purified antibodies were flowed over the sensor chip and captured by the Protein A. The chip was rotated 90° and washed with running buffer (1×PBS/0.01% Tween20, Bio-Rad) until the baseline is stable. Five concentrations of human PD-L1 and running buffer were flowed against the antibody flow cell at a flow rate 100 μL/min for an association phase of 240s, followed by 600s dissociation. The chip was regenerated with pH 1.7 H₃PO₄ after each run. The association and dissociation curve was fit to a 1:1 Langmuir binding model using ProteOn software.

Assay [4] concerns the target T3, murine PD-L1 (mouse, UniProt Q9EP73 19-239, limits assumed).
T3 construct: also called mouse PD-L1
The assay is described as follows: ELISA or FACS. In general terms: ELISA stands for enzyme-linked immunosorbent assay.

Assay [5] addresses T4, PD-L2 expressed on transfected CHO cells (Homo sapiens (Human), UniProt Q9BQ51 20-273).
T4 sequence: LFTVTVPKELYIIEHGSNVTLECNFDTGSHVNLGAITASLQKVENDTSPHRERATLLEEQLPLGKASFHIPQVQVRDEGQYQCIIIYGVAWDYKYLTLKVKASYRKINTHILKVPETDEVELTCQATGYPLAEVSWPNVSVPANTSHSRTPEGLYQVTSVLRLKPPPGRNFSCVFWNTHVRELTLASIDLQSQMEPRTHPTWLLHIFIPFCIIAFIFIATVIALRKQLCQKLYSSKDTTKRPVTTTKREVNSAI
Kind of assay: FACS, PD-L2 transfected CHO-K1 cells, single staining, concentration not shown. How it is done:
3.8. Cross-family binding assay by FACS: to examine the cross-family binding activity of the humanized antibodies, cells lines that express PD-L2 were stained with the humanized antibodies, followed by 2nd antibody staining with FITC conjugated goat anti-human IgG Fc. PD-L1 expressing cells were used as positive control. Corresponding parental cell lines were used as negative controls. The stained cells were analyzed by using a BD Biosciences FACSCanto II and FlowJo Version software.
CHO cells transfected with PD-L1 or PD-L2 were stained with humanized PD-L1 antibodies and analysis by FACS.

The target of assay [6] is T5, cynomolgus monkey PD-L1 (cynomolgus monkey, UniProt G7PSE7 19-238).
T5 construct: also called cyno PD-L1
Kind of assay: ELISA, cynomolgus PD-L1 coated on the plate, OD450 against antibody concentration; lower panel. How it is done:
(§1) 3.7. Cross-species binding assay: the cross-reactivity of the Ab to cynomolgus and murine PD-L1 was measured by ELISA. Human, cyno and mouse PD-L1 were coated on ELISA plates, respectively. After blocking, the humanized antibodies were added into the plate and incubated at room temperature for at least 2 hours. The binding of the antibodies to the coated antigens was detected by using goat anti-human IgG Fc-HRP. The color reaction was developed using TMB substrate and stopped by 2M HCl. The ELISA plates were analyzed at 450 nm using a Molecular Device M5e microplate reader.

The target in assay [7] is T5, cynomolgus monkey PD-L1. Kind of assay: ELISA, cynomolgus PD-L1 coated on the plate, OD450 against antibody concentration; upper panel. How it is done: as §1
Assay [8] concerns the target T1, human PD-L1 expressed on cells (CHO / …). The assay is described as follows: FACS competition on human PD-L1 expressing CHO cells; blocked ligand: mouse Fc-tagged human PD-1; middle panel.
The target is the same in assay [9]. Kind of assay: FACS competition on human PD-L1 expressing CHO cells; blocked ligand: mouse Fc-tagged human PD-1; top panel.
For assay [10], the target named is T3, murine PD-L1. Kind of assay: ELISA, antigen coated on plate. On the procedure:
as §1

Changes are numbered by the printed parent chain.

T3 sequence (Q9EP73 19-239 limits assumed): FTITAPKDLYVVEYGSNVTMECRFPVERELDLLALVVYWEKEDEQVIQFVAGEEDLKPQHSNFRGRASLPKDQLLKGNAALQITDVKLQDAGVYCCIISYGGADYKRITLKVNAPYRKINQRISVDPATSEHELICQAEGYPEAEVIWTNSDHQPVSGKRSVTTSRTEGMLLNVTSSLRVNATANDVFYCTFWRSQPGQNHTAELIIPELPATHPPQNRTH
T2 sequence (Q9NZQ7 19-238 limits assumed): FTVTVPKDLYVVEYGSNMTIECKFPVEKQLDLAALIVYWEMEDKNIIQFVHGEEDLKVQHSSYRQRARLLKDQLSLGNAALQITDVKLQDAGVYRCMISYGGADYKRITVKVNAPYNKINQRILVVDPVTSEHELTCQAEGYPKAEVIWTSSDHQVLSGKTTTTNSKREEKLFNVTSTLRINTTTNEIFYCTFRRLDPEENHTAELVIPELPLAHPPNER
T5 sequence (G7PSE7 entry or part of it limits assumed): as the sequence (Q9NZQ7 19-238 limits assumed) above, with A33T, A34S, S62N, R68Q, Q82R, F173L, T185A, T192I, H215L counted along it
T1 sequence (Q9NZQ7 19-290): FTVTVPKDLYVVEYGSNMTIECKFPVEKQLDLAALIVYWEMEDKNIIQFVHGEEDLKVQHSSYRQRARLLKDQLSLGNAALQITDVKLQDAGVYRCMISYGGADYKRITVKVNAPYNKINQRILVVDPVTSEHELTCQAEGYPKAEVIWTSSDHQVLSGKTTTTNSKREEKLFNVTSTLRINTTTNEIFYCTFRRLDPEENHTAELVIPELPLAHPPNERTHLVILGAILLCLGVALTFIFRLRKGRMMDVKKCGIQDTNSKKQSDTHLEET

B1: 2.74.15.hAb8 (antibody, V domains shown)
VH: QVQLQESGPGLVKPSETLSLTCTVSGYSITSGYIWHWIRQPPGKGLEWIGYIHYSGTTDFNPSLESRVTISVDTSKNQFSLKLSSVTAADTAVYYCAREGRSYGGFAYWGQGTLVTVSS
VL: DIQMTQSPSSLSASVGDRVTITCKASQSVSNGVAWYQQKPGKVPKLLIYYASNRFTGVPSRFSGSGSGTDFTLTISSLQPEDVATYYCQQDYSSPFTFGQGTKLEIK
notes: Humanized antibody with a human constant region of IgG4 isotype
For orientation: IC50 means the concentration that gives 50% inhibition. For orientation: EC50 means the concentration that produces a half-maximal response. Broadly, the Kd is the constant that tells how readily two partners part at equilibrium. A word on the koff: it is the rate constant with which the complex falls apart. As usually defined, the kon is the rate constant with which the complex forms. In assay [1], B1 came in with an IC50 of 0.196 nM. For the same molecule, the EC50 worked out at 1.17 nM in assay [2], 2.52 nM in assay [3] and 0.0524 nM in the assay with cynomolgus monkey PD-L1 [6]. Besides, the Kd with recombinant human PD-L1 was 0.0676 nM. Further, in the assay with recombinant human PD-L1, the koff was 5.48e-05 s⁻¹. Moreover, the kon in the assay with recombinant human PD-L1 is 811000 M⁻¹ s⁻¹. Moreover, the binding result (in the assay with murine PD-L1 [4]; in assay [5]) was “no binding” each time.

B2: 2.74.15.hAb7 (antibody, V domains shown)
VH: B1 VH
VL: B1 VL with M4L, S10F, V43A, D70E, V83F
notes: as for B1
For the molecule B2, the IC50 in assay [1] came out at 0.199 nM. Moreover, the EC50 in assay [2] was 1.18 nM; in assay [3], 2.53 nM; with cynomolgus monkey PD-L1 [6] it was 0.000721 nM. In the assay with recombinant human PD-L1, the Kd was found to be 0.155 nM. Besides, in the assay with recombinant human PD-L1, the koff is 0.000146 s⁻¹. For the same molecule, in the assay with recombinant human PD-L1, the kon is 938000 M⁻¹ s⁻¹. Besides, the binding result (with murine PD-L1 [4]; in assay [5]) was “no binding” throughout.

B3: 2.74.15.hAb5 (antibody, V domains shown)
VH: B1 VH with S25T, P42A
VL: B1 VL with M4L, S10F, V43A, D70E, V83F
notes: as for B1
On to B3, for which the results for the half-maximal effective concentration (EC50) (with cynomolgus monkey PD-L1 [7]; in assay [2]; in [3]) were 0.026 nM, 1.11 nM and 2 nM, respectively. Also, in the assay with recombinant human PD-L1, the dissociation constant Kd is 0.106 nM. For the same molecule, the koff with recombinant human PD-L1 is 0.000135 s⁻¹. Further, the kon in the assay with recombinant human PD-L1 came to 1.27e+06 M⁻¹ s⁻¹. Also, the binding result (in the assay with murine PD-L1 [4]; in [5]) was “no binding” in each case. For the same molecule, in [8], the IC50 was 0.15 nM.

B4: 2.74.15.hAb6 (antibody, V domains shown)
VH: B1 VH with S25T, P42A
VL: B1 VL
notes: as for B1
In the case of B4, the EC50 stood at 0.0238 nM in the assay with cynomolgus monkey PD-L1 [7], 1.08 nM in [2] and 2.39 nM in [3]. In the assay with recombinant human PD-L1, the Kd was found to be 0.149 nM. In addition, the koff in the assay with recombinant human PD-L1 came out at 0.000172 s⁻¹. Further, in the assay with recombinant human PD-L1, the kon came out at 1.16e+06 M⁻¹ s⁻¹. Moreover, the binding result (with murine PD-L1 [4]; in assay [5]) was “no binding” in each case. Further, in assay [8], the IC50 amounted to 0.157 nM.

B5: 2.74.15.hAb4 (antibody, V domains shown)
VH: B1 VH with S119A
VL: B1 VL with D1S, I2F, Q3V, Q100S, K103E
notes: as for B1
Turning to B5, the values for the EC50 (with cynomolgus monkey PD-L1 [7]; in [2]; in assay [3]) were 0.00577 nM, 1.53 nM and 1.82 nM, respectively. In assay [9], this molecule had an IC50 of 0.622 nM. The Kd in the assay with recombinant human PD-L1 was found to be 0.0389 nM. The koff in the assay with recombinant human PD-L1 was found to be 2.83e-05 s⁻¹. Also, the kon in the assay with recombinant human PD-L1 worked out at 728000 M⁻¹ s⁻¹. Also, the binding result (in assay [5]; with murine PD-L1 [10]) was “no binding” throughout.
